To fix the notation:
B1: Compound 31, AF-Cit-Lys(Mal-DM1)-Phe-Lys(PEG4-Mal-Cys-Ac)-Phe-OH (peptide)
peptide: XKFKF
modifications: AF at the N-terminus; citrulline (Cit); Lys(Mal-DM1); Lys(PEG4-Mal-Cys-Ac)
B2: Compound 30, Ac-Cys-Mal-PEG4-Phe-Arg-Lys(Mal-DM1)-Arg-Lys(AF)-Phe-OH (peptide)
peptide: FRKRKF
modifications: Ac-Cys-Mal-PEG4 at the N-terminus; Lys(Mal-DM1); Lys(AF)
B3: Compound 29, Ac-Cys-Mal-PEG4-[Phe-Lys-Lys(Mal-DM1)-Phe]2-OH (peptide)
peptide: FKKFFKKF
modifications: Ac-Cys-Mal-PEG4 at the N-terminus; two Lys(Mal-DM1)
B4: Compound 5, DM1-Mal-Phe-Lys-Lys(PEG4-Mal-Cys-Ac)-Phe-OH (peptide)
peptide: FKKF
modifications: DM1-Mal on the N-terminus of Phe; Lys(PEG4-Mal-Cys-Ac)
B5: Compound 23, DM1-Mcc-Cit-Lys(PEG5-Ma-Cys-Ac)-Tyr-OH (peptide)
peptide: XKY
modifications: X at position 1 is citrulline (Cit); DM1-Mcc on the N-terminus; Lys 2 side chain carries PEG5-Ma-Cys-Ac
B6: Compound 7, DM1-Mal-Phe-Cit-Phe-Lys(PEG4-Mal-Cys-Ac)-OH (peptide)
peptide: FXFK
modifications: DM1-Mal on the N-terminus of Phe; citrulline (Cit); Lys(PEG4-Mal-Cys-Ac)
B7: Compound 6, DM1-Mal-Phe-Cit-Lys(PEG4-Mal-Cys-Ac)-Phe-OH (peptide)
peptide: FXKF
modifications: DM1-Mal on the N-terminus of Phe; citrulline (Cit); Lys(PEG4-Mal-Cys-Ac)
B8: Compound 19, AF-Cit-Lys(PEG4-Mal-Cys-Ac)-Phe-OH (peptide)
peptide: XKF
modifications: X at position 1 is citrulline (Cit); N-terminus acylated with auristatin F (AF); Lys 2 side chain carries PEG4-Mal-Cys-Ac
B9: Compound 22, DM1-Mcc-Phe-Cit-Lys(PEG5-Ma-Cys-Ac)-Tyr-OH (peptide)
peptide: FXKY
modifications: DM1-Mcc on the N-terminus of Phe; citrulline (Cit); Lys(PEG5-Ma-Cys-Ac)
B10: Compound 1, AF-Arg-Lys(PEG4-Mal-Cys-Ac)-Phe-OH (peptide)
peptide: RKF
modifications: N-terminus acylated with auristatin F (AF); Lys 2 side chain carries PEG4-Mal-Cys-Ac
B11: Compound 3, AF-Arg-Phe-Lys(PEG4-Mal-Cys-Ac)-OH (peptide)
peptide: RFK
modifications: N-terminus acylated with auristatin F (AF); Lys 3 side chain carries PEG4-Mal-Cys-Ac
B12: Compound 27, Ac-Cys-Ma-PEG5-Phe-Cit-Lys(Mcc-DM1)-Tyr-OH (peptide)
peptide: FXKY
modifications: Ac-Cys-Ma-PEG5 at the N-terminus; citrulline (Cit); Lys(Mcc-DM1)
B13: Compound 8, Arg-PEG4-Phe-Arg-Glu(Sar-OCPT)-Phe-OH (peptide)
peptide: R[PEG4′]FRE([Sar-OCPT])F-OH
B14: Compound 28, Ac-Cys-Mal-PEG4-Phe-Lys-Lys(Mal-DM1)-Phe-Phe-Lys-OH (peptide)
peptide: FKKFFK
modifications: Ac-Cys-Mal-PEG4 at the N-terminus; Lys(Mal-DM1)
B15: Compound 12, Ac-Cys-Mal-PEG4-Phe-Lys-Lys(Mal-DM1)-Phe-OH (peptide)
peptide: FKKF
modifications: Ac-Cys-Mal-PEG4 at the N-terminus; Lys(Mal-DM1)
B16: Compound 9, Arg-PEG4-Phe-Arg-Dap(CO-CPT)-Phe-OH (peptide)
peptide: R[PEG4′]FR[Dap](CO‑CPT)F-OH
B17: Compound 11, Arg-PEG4-Phe-Arg-Ser(CO-CPT)-Phe-OH (peptide)
peptide: R[PEG4′]FRS([CO′-CPT])F-OH
B18: Compound 13, Ac-Cys-Mal-PEG4-Phe-Lys-Lys(AF)-Phe-OH (peptide)
peptide: {Ac-Cys-Propanoyl(3-maleimido)-PEG4′}-FKK(AF)F-OH
B19: Compound 10, Arg-PEG4-Phe-Arg-Dab(CO-CPT)-Phe-OH (peptide)
peptide: R[PEG4′]FR[Dab](CO‑CPT)F-OH

Non-standard residues stand in square brackets, D forms with d. Groups on a side chain read outwards from the residue. Primed or numbered codes have the meaning given here. No end group written: not given here. *: point of attachment. OCPT = camptothecin (CPT) attached as an ester, CC[C@@]1(O*)C(=O)OCc2c1cc1n(c2=O)Cc2cc3ccccc3nc2-1; Propanoyl(3-maleimido) = O=C1C=CC(=O)N1CCC(=O)*; PEG4′ = tetraethylene glycol; Dab = NCC[C@H](N)C(=O)O; CO′ = not defined here; Dap = NC[C@H](N)C(=O)O; CPT = Camptothecin; AF = auristatin F; Sar = CNCC(=O)O

The first assay concerns the target T1, Recombinant human Cathepsin B (human, UniProt P07858 80-333). In words: cell-based or functional assay.
Take B1: the “Ratio (T1/2 Compound/T1/2 Reference)” value is 0.08.

In another assay the target is T1, Recombinant human Cathepsin B. In words: cell-based or functional assay. This is another data set of the same source.
Regarding B2, the “Ratio (T1/2 Compound/T1/2 Reference)” value was determined as 0.07.

For B3, the “Ratio (T1/2 Compound/T1/2 Reference)” value was determined as 0.23.

The target is the same in a further assay. In words: cell-based or functional assay. The source holds these as a separate data set.
Regarding B4, the “Ratio (T1/2 Compound/T1/2 Reference)” value was found to be 0.05. Still for that read-out and setting: under B5 stands 4e-05. Regarding B6, the “Ratio (T1/2 Compound/T1/2 Reference)” value was 0.09. With B7, the “Ratio (T1/2 Compound/T1/2 Reference)” value came to 0.02. As to B8, the “Ratio (T1/2 Compound/T1/2 Reference)” value was 0.09. Still for that read-out and setting: the result for B9 reads 0.005. The same measure, in the same setting: the result for B10 reads 0.12; that for B11, 0.11.

Another assay has the same target. In words: cell-based or functional assay. This is another data set of the same source.
With B12, the “Ratio (T1/2 Compound/T1/2 Reference)” value was found to be 0.005. Same read-out and setting: the result for B13 reads 0.19.

In the case of B14, the “Ratio (T1/2 Compound/T1/2 Reference)” value stood at 0.03.

For the molecule B15, the “Ratio (T1/2 Compound/T1/2 Reference)” value was determined as 0.14. Same read-out and setting: under B16 stands 0.63; under B17, 0.2; under B18, 0.15. Same read-out and setting: under B19 stands 0.1.

For the origin of these results see US20220062371A1 (DEBIOPHARM RESEARCH AND MANUFACTURING S A, published 2022).
